Data taken from the supplement of paper PMC9732359.
± gives the uncertainty stated by the source.

assay: protein stability index of a GFP-peptide fusion (yeast GPS) (PSI 1-4); higher = more stable; sorted into four equal gates, so the index is relative within each strain; conditions: doa10∆
Summary of the method: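 Plasmids isolated from each sorting gate were PCR-amplified and Illumina-sequenced, and barcodes assigned the reads to strains. The gates, four of equal size, were set by GFP/Cherry fluorescence ratio on mid-log cultures in leucine-free medium. These cultures were yeast carrying a pooled library of tiled 17-residue yeast protein peptides fused downstream of GFP on a plasmid that also expresses Cherry. The protein stability index is the sum of every gate's read frequency times its gate number.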

| Sequence | protein stability index |
| --- | --- |
| TNQIFQSRRYNLRRHSD [SIN4] | 2.94 ± 0.045 |
| TNQLVLLQKMLNLLNYQ [YML103C/NUP188] | 1.99 ± 0.04 |
| TNSNNTPLQSQLNLNNL [PGD1] | 3.01 ± 0.071 |
| TNWDDHAIIIFGYPETI [YMR153W/NUP53] | 2.45 ± 0.062 |
| TPAEMSRPATTTRNGFM [FAS2] | 2.35 ± 0.038 |
| TPESVKPANASHAIRLG [RGR1] | 2.63 ± 0.049 |
| TPFSFGTANNNSNTTNQ [YJL041W/NSP1] | 3.25 ± 0.054 |
| TPGSVSLSAYNLTDEGY [PRP8] | 2.23 ± 0.15 |
| TPLKARQREMAEEQTKL [YLR018C/POM34] | 3.33 ± 0.08 |
| TPLQSQLNLNNLTPANI [PGD1] | 2.98 ± 0.064 |
| TPLRDEVTDKNYYYLFD [PRP8] | 2.98 ± 0.068 |
| TPMDESSYDLLFNESFI [SRP72] | 3.07 ± 0.1 |
| TPRGNHWMGSSVSGSPR [YMR129W/POM152] | 3.25 ± 0.077 |
| TPSTEESRAQNVFGQDN [SWI3] | 2.58 ± 0.092 |
| TPVSHNDDLYGKVTDVR [RPL1A] | 3.04 ± 0.091 |
| TPVVLATPIPEEVQQAQ [RPS5] | 2.55 ± 0.099 |
| TPYSNESGLVNADLDVK [RPO21] | 2.75 ± 0.054 |
| TQAKRIFLQQFLQELLK [SWI1] | 2.62 ± 0.072 |
| TQKTELEIDNKDSVTEC [SIR4] | 1.74 ± 0.061 |
| TQMDGFDQSTNVKVIMA [RPT3] | 2.28 ± 0.062 |
| TQTFNGSIFTHETTFMT [YML031W/NDC1] | 2.86 ± 0.063 |
| TQYKAGKASLFAQGKRR [RPL42A] | 3.35 ± 0.089 |
| TRAQYLAFAKLVHSEYL [SRP68] | 1.58 ± 0.08 |
| TRDVEPENLQVTSEKYP [BRR2] | 2.75 ± 0.1 |
| TREKVLEDKLRAVLTPL [RRP46] | 2.89 ± 0.17 |

| Sequence | protein stability index |
| --- | --- |
| TRKILEILNECHDELKA [MED4] | 2.04 ± 0.071 |
| TRLKSLLKPFHVKVNDK [SIR3] | 2.65 ± 0.093 |
| TRLVQLREFRITHNTNI [GRR1] | 1.23 ± 0.11 |
| TRRKRRQGRSNRRGMLA [SNF5] | 2.51 ± 0.13 |
| TSANGIVQFTYGGDGLD [RPO31] | 2.68 ± 0.093 |
| TSAVELGAIEQILIFAA [YJL039C/NUP192] | 2.13 ± 0.16 |
| TSELGNDDFSEVFEFKT [BRR2] | 3.04 ± 0.14 |
| TSLATSAGQPNLLLSAS [ASC1] | 2.03 ± 0.06 |
| TSLKCLVNRKPIPFEFQ [SNF2] | 2.56 ± 0.054 |
| TSLLDSLISVLEASLNS [YJL039C/NUP192] | 1.94 ± 0.083 |
| TSPTMPDYYVSILSFVD [RPT2] | 2.2 ± 0.048 |
| TSRKALEEVSLKWIDTA [RPL3] | 1.67 ± 0.098 |
| TSSTHERKSKTYVITKN [RET1] | 2.44 ± 0.067 |
| TSTEKLYKLNDKIAVAV [PRE9] | 2.84 ± 0.072 |
| TSTGIIRCHREDCDLVI [POP5] | 2.67 ± 0.071 |
| TSTNGDSENNEENSSSN [RGR1] | 2.64 ± 0.18 |
| TSYKKWSFDLPEMSNLY [PRP8] | 2.6 ± 0.055 |
| TTARAKARAKKTKKEKG [RPN2] | 3.31 ± 0.15 |
| TTDDKSMDTKKKHKQKK [BRN1] | 3.21 ± 0.092 |
| TTDKLRSMVRKWQTLIE [RPS1A] | 2.72 ± 0.17 |
| TTGSIFEKDLMAYFDEN [BRN1] | 2.83 ± 0.055 |
| TTLKLSPSPILLTSAGC [NUT1] | 1.47 ± 0.043 |
| TTPEINNFIVERVQSDE [SRP68] | 3.18 ± 0.15 |
| TTSEATANDRQINNVHL [RPN4] | 2.97 ± 0.11 |
| TTSERVSNENKKNIDYQ [RRI1] | 2.98 ± 0.083 |

| Sequence | protein stability index |
| --- | --- |
| TTSLNPIQSKVFHAAFE [BRR2] | 2.65 ± 0.062 |
| TTTRIQSQQAQPSDVMF [MED2] | 2.91 ± 0.061 |
| TTTVLKRYANHTQDIIG [RET1] | 2.04 ± 0.083 |
| TTYSVDDYYKEIIGGGS [ISW2] | 3.32 ± 0.1 |
| TVDLALFGSPPFILEYD [YMR129W/POM152] | 2.36 ± 0.044 |
| TVELQVGLKNYDPQRDK [RPL1A] | 3.05 ± 0.091 |
| TVPELEIPTQIYRTTRQ [ARP9] | 2.39 ± 0.076 |
| TVTIASSLNLEDTPAND [RPB8] | 2.83 ± 0.066 |
| TYGVPGSENKRGSLDSE [NUT1] | 3.31 ± 0.095 |
| TYLLKNDLVKARDLLDD [RPN9] | 2.7 ± 0.11 |
| TYNEDIPVEILVRRLSD [PRE9] | 3.06 ± 0.079 |
| TYNMIDAAAEKRNGDEV [ARP7] | 2.85 ± 0.066 |
| VAARAEILRIHSRKMNL [RPT6] | 2.59 ± 0.056 |
| VARIYASFNDTFVHVTD [RPS14A] | 1.96 ± 0.06 |
| VASQSPHATATEKEPVP [SNF6] | 3.23 ± 0.11 |
| VCFNNLVDENTDYLYRR [YCS4] | 2.61 ± 0.067 |
| VDIEYTRGRNIIMHKDV [RET1] | 2.44 ± 0.11 |
| VDPVYKDVAKPTGPKTA [FAS2] | 2.99 ± 0.096 |
| VDREAMLKPNIIFQQLL [YCG1] | 2.98 ± 0.24 |
| VDRSKYNIELPLPPRID [RPT1] | 3.33 ± 0.2 |
| VDVAKDINVKDLKASQR [RPT6] | 3.35 ± 0.14 |
| VDVELITSINVENDTFI [FAS2] | 3.4 ± 0.1 |
| VDVFAMPQSGTGVSVEA [RPN11] | 3.1 ± 0.1 |
| VEAQSHRLTLEDPVTVE [PRE6] | 3.23 ± 0.15 |
| VEDVSQNAADLQQICRV [RPL9A] | 2.96 ± 0.096 |

| Sequence | protein stability index |
| --- | --- |
| VEGPKFTIDAKPPISDS [YLR335W/NUP2] | 3.31 ± 0.048 |
| VELLDSNDRVNPLIELT [ITC1] | 3.58 ± 0.11 |
| VEVKDASLVDYVQVRQP [RPS5] | 2.9 ± 0.3 |
| VFHAAFEGDSNMLICAP [BRR2] | 2.25 ± 0.048 |
| VFLSNLVETCLNDLVES [BRR2] | 1.41 ± 0.05 |
| VFQAKMMDMLKQTGRDQ [RPN11] | 2.56 ± 0.061 |
| VGCKNLERLTLVFCKHI [GRR1] | 1.52 ± 0.062 |
| VGEMKLLKKKDDPSKVR [YLR335W/NUP2] | 3.29 ± 0.08 |
| VGGHNVTIREQINIMPS [SIR3] | 2.91 ± 0.069 |
| VGHLSILPQQSKLKLKN [ECM29] | 1.91 ± 0.16 |
| VGIDTHTATDIYQTLIA [SNF2] | 2.12 ± 0.05 |
| VGKFLGYVSSLVEPSKV [FAS1] | 1.71 ± 0.064 |
| VGKTVKQLIMESQEKYM [NSL1] | 3.17 ± 0.097 |
| VGQAGRPKKITGWITQS [RPN1] | 1.99 ± 0.059 |
| VGRRAANLRVLNSYWVN [RPL15A] | 1.97 ± 0.062 |
| VGVENNGQYAAFVKDMQ [RPC37] | 3.21 ± 0.12 |
| VGVNKDSYLILDTLPSE [RPT5] | 3.15 ± 0.069 |
| VGVVFGSGAANENPYNN [COR1] | 3.24 ± 0.15 |
| VHSSSPSTSSNMDVGNP [GAL11] | 2.89 ± 0.071 |
| VIKRLEASTVPWGDYLQ [BRR2] | 1.63 ± 0.15 |
| VITLLNNSSITLRCSVV [YCS4] | 2.04 ± 0.06 |
| VIVELLPQSEWKAPSSI [DIS3] | 2.79 ± 0.071 |
| VIWELDDSANIVNVNFM [DIS3] | 2.96 ± 0.049 |
| VKLLKTTVPIVSKKRQK [POP3] | 3.2 ± 0.1 |

same assay, conditions: pdr5∆

| Sequence | protein stability index |
| --- | --- |
| TNQIFQSRRYNLRRHSD [SIN4] | 3.18 ± 0.04 |
